The data set addresses soybean Hb (Lba) (Glycine max, UniProt P02238). The experiment in a line: Redness (a-value) of Lba solutions after exposure to 35 fc of light for 4 days. To be noted: 35 fc light, 4 days, main effect over niacin amounts. The method, then:
FIG. 2—Effect of pH and different molar ratios of niacin to soybean Hb on the redness of Lba solutions. Measurement after exposure to 35 fc of light for 4 days
100 grams of meat analog containing a 3:1 dose of niacin would provide 5.9 mg niacin; a 6:1 dose would provide 11.8 mg niacin.

soybean Hb (Lba), sequence (P02238 whole entry): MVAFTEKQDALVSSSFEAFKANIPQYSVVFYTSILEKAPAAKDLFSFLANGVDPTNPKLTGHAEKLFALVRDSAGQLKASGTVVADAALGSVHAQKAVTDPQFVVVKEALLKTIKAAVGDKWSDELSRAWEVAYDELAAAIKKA

B1: Lba: plant Hb (soybean hemoglobin; Lba) added to meat analog (protein, UniProt P02238 2-144, looked up)
Leghemoglobin 3: VAFTEKQDALVSSSFEAFKANIPQYSVVFYTSILEKAPAAKDLFSFLANGVDPTNPKLTGHAEKLFALVRDSAGQLKASGTVVADAALGSVHAQKAVTDPQFVVVKEALLKTIKAAVGDKWSDELSRAWEVAYDELAAAIKKA
Regarding B1, the “Redness (a-value) at day 4” value reads like this: (pH 6.0) 4.72a; (pH 6.3) 4.62ab; (pH 6.6) 4.45b; (pH 7.0) 3.99c.
